# Reference: patent publication US20250382354A1
# B1: CV3-25 (antibody)
# chain 1: QVQLVESGAEVKKPGESLKISCKGSGYTFTRYWIGWVRQMPGKGLEWMGIIYPGDSDTRYSPSFQGHVTISADKSISTAYLQWNSLKASDTAMYYCARLPQYCSNGVCQRWFDPWGQGTLVTVSS
# chain 2: EIVLTQSPSSVSASVGDRVTITCRASQGISSWLAWYQQKPGKAPKLLIYAASSLQSGVPSRFSGSGSGTDFTLTISSLQPEDFATYYCQQGNSFPYTFGQGTNLEIK
# B2: hr2.020 (antibody, V domains shown)
# VH: EVQLVQSGAEVKKPGESLKISCKGSGYRFASHWIGWVRQMPGKGLQWMGIIYPGDSDTKYSPSFQGQVTISADKSINTVYLHWTSLKASDTAVYYCARRPPHLDGGDSPIRFDHWGQGTLVTVSS
# VL: QSVLTQPPSASGTPGQRVTISCSGSRSNIGSNDVYWYQQFPGTAPKLLIYRNNQRPSGVPDRFSGSKSGTSASLAISGLRSEDEADYYCATWDDRLTGVFGGGTKLTVV
# Molecular target: JL14 HR2 peptide (JL14)
# Assay: peptide ELISA
row,Binder,EC50 [µg/mL]
1,B1,0.0176
2,B2,0.0351
